Data on 3 molecules can be found in patent publication US20160046706A1 (MEDICAL AND BIOLOGICAL LABORATORIES, published 2016).

The target of assay [1] is T1, human NRG1-α protein (full length, HA tag at the N-terminus, on NRG1-a/st293T cells) (human, UniProt Q02297 20-640).
T1 construct: also called NRG1 isoform 2; HA-NRG1-a/st293T; not shown: HA tag added to the N-terminus
T1 sequence: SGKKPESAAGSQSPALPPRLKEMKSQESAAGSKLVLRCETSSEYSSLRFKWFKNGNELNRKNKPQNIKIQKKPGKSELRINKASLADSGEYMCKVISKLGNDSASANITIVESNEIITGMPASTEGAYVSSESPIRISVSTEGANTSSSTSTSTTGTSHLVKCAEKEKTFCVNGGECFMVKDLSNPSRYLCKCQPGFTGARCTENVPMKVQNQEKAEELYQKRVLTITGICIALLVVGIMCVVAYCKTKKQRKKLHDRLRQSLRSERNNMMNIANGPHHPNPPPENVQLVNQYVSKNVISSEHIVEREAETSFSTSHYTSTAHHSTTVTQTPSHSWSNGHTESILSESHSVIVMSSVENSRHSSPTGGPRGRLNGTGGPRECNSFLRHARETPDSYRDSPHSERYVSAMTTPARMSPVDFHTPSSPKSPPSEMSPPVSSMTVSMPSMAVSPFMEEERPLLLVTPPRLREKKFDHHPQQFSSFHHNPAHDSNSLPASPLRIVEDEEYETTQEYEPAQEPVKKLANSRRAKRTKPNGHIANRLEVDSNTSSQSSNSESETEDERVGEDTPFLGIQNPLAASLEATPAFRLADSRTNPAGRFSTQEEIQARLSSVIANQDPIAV
The assay is described as follows: ELISA on partial-length proteins and flow cytometry on NRG1-a/st293T cells (FIGS. 5 to 7). (In an ELISA, binding on a coated surface is turned into a signal by an enzyme label.)

For assay [2], the target named is T2, TGF-alpha (transforming growth factor α; R&D Systems 239-A-100) (UniProt P01135 40-89).
T2 construct: Bought protein; also called TGFα; TGF-α
The assay is described as follows: ELISA, factor on the plate at 0.5 µg/mL (FIG. 8). The protocol: (§1) After the solution was removed, 1% BSA (manufactured by Nacalai Tesque, Inc.: 01863-35)—5% Sucrose (manufactured by WAKO PURE CHEMICAL […], LTD.)—PBS was added in an amount of 150 μL/well, and left to stand at room temperature for 2 hours to block the remaining active groups. After the resultant was left to stand, the solution was removed, and the hybridoma culture supernatant was dispensed as a primary antibody in an amount of 50 μL/well and left to stand for 1 hour. After the plate was washed with 0.05% Tween 20-PBS, an HRP-labeled anti-mouse IgG antibody (manufactured by MBL Co., Ltd.: 330) having been diluted 10000 times was added as a secondary antibody in an amount of 50 μL/well and left to stand at room temperature for 1 hour. After the plate was washed with 0.05% Tween 20-PBS, a color developing solution (5 mM sodium citrate, 0.8 mM 3.3′.5.5′-tetramethylbenzidine-2HCl, 10% N,N-dimethylformamide, 0.625% polyethylene glycol 4000, 5 mM citric acid monohydrate, 5 mM H2O2) was added thereto in an amount of 50 μL/well and left to stand at room temperature for 20 minutes to develop a color. The color development was terminated by adding 1 M phosphoric acid in an amount of 50 μL/well. Then, the absorbance at 450 nm was measured using a plate reader (manufactured by Thermo Fisher Scientific Inc.).
(§2) As described above, any homology with the NRG1 protein is low in the EGF domain. Nonetheless, 8a4, 10bM3, and 10b2M3 capable of recognizing the vicinity of the EGF domain were analyzed for the reactivity with the other factors of the EGF family by the same ELISA as above. To be more specific, each of EGF (manufactured by R&D Systems, Inc.: 236-EG-200), HB-EGF (manufactured by R&D Systems, Inc.: 259-HE-050/CF), TGF-alpha (manufactured by R&D Systems, Inc.: 239-A-100), AREG (manufactured by R&D Systems, Inc.: 262-AR-100/CF), NRG1-α (manufactured by R&D Systems, Inc.: 296-HR-050/CF), or NRG1-b (manufactured by R&D Systems, Inc.: 296-HB-050/CF) was dispensed in a 96-well ELISA plate in an amount of 0.5 μg/mL, that is, 50 μL/well, and immobilized thereto, for detection of the reaction with each antibody in amounts of 10 μg/mL and 1 μg/mL.

Assay [3] deals with T3, AREG (amphiregulin; R&D Systems 262-AR-100/CF) (UniProt P15514 101-198).
T3 construct: Bought protein
T3 sequence (looked up): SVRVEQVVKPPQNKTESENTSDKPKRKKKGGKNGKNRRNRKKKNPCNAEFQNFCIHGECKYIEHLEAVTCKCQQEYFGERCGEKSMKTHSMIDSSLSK
Description: ELISA, factor on the plate at 0.5 µg/mL (FIG. 8). The protocol: as §1, §2

For assay [4], the target named is T4, HB-EGF (heparin-binding EGF-like growth factor; R&D Systems 259-HE-050/CF) (UniProt Q99075 63-148).
T4 construct: Bought protein
The assay is described as follows: ELISA, factor on the plate at 0.5 µg/mL (FIG. 8). The protocol:
as §1, §2

In assay [5] the target is T5, EGF (R&D Systems 236-EG-200) (UniProt P01133 971-1023).
T5 construct: Bought protein
Description: ELISA, factor on the plate at 0.5 µg/mL (FIG. 8). As for the experimental part: as §1, §2

In assay [6] the target is T6, human NRG1-β1 protein (full length, HA tag at the N-terminus, on NRG1-b/st293T cells) (human, UniProt Q02297 20-640).
T6 construct: also called NRG1 isoform 1; HA-NRG1-b/st293T; not shown: HA tag added to the N-terminus
T6 sequence: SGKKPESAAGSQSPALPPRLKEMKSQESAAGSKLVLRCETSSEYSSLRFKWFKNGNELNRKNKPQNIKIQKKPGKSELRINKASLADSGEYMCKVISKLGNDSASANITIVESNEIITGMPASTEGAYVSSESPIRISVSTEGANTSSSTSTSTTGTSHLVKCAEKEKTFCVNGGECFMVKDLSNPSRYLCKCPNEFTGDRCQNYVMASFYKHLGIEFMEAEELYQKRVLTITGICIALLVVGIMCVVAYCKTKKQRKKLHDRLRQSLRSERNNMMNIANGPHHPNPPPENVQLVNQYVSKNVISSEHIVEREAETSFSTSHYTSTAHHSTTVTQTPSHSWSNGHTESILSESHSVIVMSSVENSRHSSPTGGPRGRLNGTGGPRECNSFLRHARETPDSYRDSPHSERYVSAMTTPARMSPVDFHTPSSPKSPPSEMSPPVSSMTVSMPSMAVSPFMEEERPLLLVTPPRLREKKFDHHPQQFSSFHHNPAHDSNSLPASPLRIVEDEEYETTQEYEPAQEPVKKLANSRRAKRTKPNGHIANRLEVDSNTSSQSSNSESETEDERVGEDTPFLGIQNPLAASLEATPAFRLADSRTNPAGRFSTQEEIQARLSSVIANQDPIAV
The assay is described as follows: flow cytometry on NRG1-b/st293T cells.

In assay [7] the target is T7, agPa (synthetic peptide containing the cleavage region of NRG1-a, bound to KLH); positions 221 to 244 of the … (human, bound to KLH).
T7 peptide: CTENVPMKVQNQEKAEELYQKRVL
Description: ELISA, partial-length NRG1 protein on the plate (FIG. 4). As for the experimental part: Hybridomas producing anti-NRG1 antibodies were selected by the enzyme-linked immunosorbent assay (ELISA). The assay used the recombinant human NRG1 proteins as immunogens, which had been dispensed in a 96-well ELISA plate (manufactured by nunc A/S) in an amount of 0.5 μg/mL, that is, 50 μL/well, and left to stand at room temperature for 2 hours or 4° C. overnight for adsorption. After the solution was removed, 1% BSA (manufactured by Nacalai Tesque, Inc.: 01863-35)—5% Sucrose (manufactured by WAKO PURE CHEMICAL […], LTD.)—PBS was added in an amount of 150 μL/well, and left to stand at room temperature for 2 hours to block the remaining active groups. After the resultant was left to stand, the solution was removed, and the hybridoma culture supernatant was dispensed as a primary antibody in an amount of 50 μL/well and left to stand for 1 hour. […] Then, the absorbance at 450 nm was measured using a plate reader (manufactured by Thermo Fisher Scientific Inc.).
The sequences recognized by 8a2, 8a4, 10bM3, and 10b2M3 were analyzed by evaluating the reactivity with the recombinant NRG1 proteins. To be more specific, the analysis was performed using multiple partial-length NRG1 proteins, and the reactivity of each antibody with these was detected by the same enzyme-linked immunosorbent assay (ELISA) as above. […] The vertical axis represents the absorbance.

T2 sequence (P01135 40-89 limits assumed): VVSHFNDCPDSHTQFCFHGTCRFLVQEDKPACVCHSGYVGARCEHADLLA
T4 sequence (Q99075 63-148 limits assumed): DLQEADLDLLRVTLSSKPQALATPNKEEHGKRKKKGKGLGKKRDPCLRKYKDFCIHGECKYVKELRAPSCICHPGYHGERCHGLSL
T5 sequence (P01133 971-1023 limits assumed): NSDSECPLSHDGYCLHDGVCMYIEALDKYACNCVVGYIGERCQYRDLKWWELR

B1: 10bM3 (antibody, mouse IgG1, V domains shown)
VH: EVQLVESGGGLVKPGGSRKLSCAASGFTFSDYGIHWVRQAPEKGLEWLAYISSGSSTIYYADTVKGRFTISRDNAKNTLFLQMTSLRSEDTAMYYCARGSNYVGYYAMDYWGQGTSVTVSS
VL: DIVMTQSPSSLAVTAGEKVTMRCKSSQSLLWSVNQKNYLSWYQQKEGQSPKLLIYGASIRESWVPDRFTGSGSGTDFTLTISNVHAEDLAVYYCQHNHGRFLPLTFGGGTKL
notes: Mouse monoclonal antibody; Variable genes were amplified with mouse IgG1 CH1 and kappa constant region primers; The printed VL ends at ...GTKL
On to B1, for which the binding result is “no binding” in assay [1]; “no binding (tested: 10 µg/mL and 1 µg/mL)” in assay [2]; “no binding (tested: 10 µg/mL and 1 µg/mL)” in assay [3]; “no binding (tested: 10 µg/mL and 1 µg/mL)” in assay [4]; “no binding (tested: 10 µg/mL and 1 µg/mL)” in assay [5].

B2: 10b2M3 (antibody, mouse IgG1, V domains shown)
VH: QVQLQQSGPELVKPGASVKISCKASGYAFSSSWMNWVKQRPGKGLEWIGRIYPGDGDIYYNGKFKGKATLTADKSSSTAYMQLNSLTSEDSAVYFCARTFNYPFFAYWGQGTLVTVSS
VL: DILMTQSPSSLTVSTGEKVTMSCKSSQSLLASANQNNYLAWHQQKPGRSPKMLIIWASTRVSGVPDRFIGSGSGTDFTLTINSVQAEDLAVYYCQQSYSAPTTFGAGTKL
notes: Mouse monoclonal antibody; Variable genes were amplified with mouse IgG1 CH1 and kappa constant region primers; The printed VL ends at ...GTKL; also called 10b2M3 antibody
Consider B2, for which the binding result in assay [1] was “no binding”; in assay [2], “no binding (tested: 10 µg/mL and 1 µg/mL)”; in assay [3], “no binding (tested: 10 µg/mL and 1 µg/mL)”; in assay [4] it was “no binding (tested: 10 µg/mL and 1 µg/mL)”; in assay [5], “no binding (tested: 10 µg/mL and 1 µg/mL)”.

B3: 8a4 (antibody, mouse IgG1, V domains shown)
VH: EVQLQQSGADLVRPGASVKLSCTASGFNIKDDYIHWVKQRPEQGLEWIGWIDPENGDTEYASQFQGKATITADTSSNTAYLQLRSLTSEDTAVYYCTTSDHRAWFAFWGLGTLVTVSS
VL: DVLMTQTPLSLPVSLGDQASISCRSSQTIVHRNGNTYLEWYLQKPGQSPKLLIYRVSNRFSGVPDRFSGSGSGTDFTLKISRVEAEDLGVYYCFQGSHVPLTFGAGTKL
notes: Mouse monoclonal antibody; Variable genes were amplified with mouse IgG1 CH1 and kappa constant region primers; The printed VL ends at ...GTKL; also called 8a4 antibody
B3: the binding result in assay [6] was “no binding (tested: 5 µg/mL)”; in assay [2] it was “no binding (tested: 10 µg/mL and 1 µg/mL)”; in assay [3], “no binding (tested: 10 µg/mL and 1 µg/mL)”; in assay [4], “no binding (tested: 10 µg/mL and 1 µg/mL)”; in assay [5], “no binding (tested: 10 µg/mL and 1 µg/mL)”; in assay [7] it was “binds”.
